We go through five substances from patent publication US6500927B2 (priority 1998, dated 2002).

pKd, pKi: −log10 of the molar value.

The target of one assay is T1, MOR-1D (Mus musculus, UniProt P42866).
T1 construct: The cDNA fragments containing the full length MOR-1 or the MOR-1 variants in pCRII-ToPo were subcloned into pcDNA3.1; expressed in transfected cells
It counts as binding. The settings on record: MOR-1D vs MOR-1, p<0.05.

The target in a further assay is T2, MOR-1E (Mus musculus, UniProt P42866).
T2 construct: The cDNA fragments containing the full length MOR-1 or the MOR-1 variants in pCRII-ToPo were subcloned into pcDNA3.1; expressed in transfected cells
It counts as binding. Conditions: MOR-1E vs MOR-1.

For assay [1], the target named is MOR-1 (mu-opioid receptor-1, full length) (mouse) (UniProt P42866). Briefly: competition with ^3H-DAMGO, CHO cell membranes.
Assay [2] addresses MOR-1C splice variant of the mu-opioid receptor-1 (mouse). Briefly: competition with ^3H-DAMGO, CHO cell membranes.
Assay [3] deals with MOR-1E splice variant of the mu-opioid receptor-1 (mouse) (UniProt P42866). Put plainly: competition with ^3H-DAMGO, CHO cell membranes.
The target of assay [4] is MOR-1D splice variant of the mu-opioid receptor-1 (mouse) (UniProt P42866). Put plainly: competition with ^3H-DAMGO, CHO cell membranes.
Assay [5] concerns the target MOR-1 (mu-opioid receptor-1, full length) (mouse) (UniProt P42866). Put plainly: saturation radioligand binding, membranes of stably transfected CHO cells.
For assay [6], the target named is MOR-1C splice variant of the mu-opioid receptor-1 (mouse). The description is as above.
The target of assay [7] is MOR-1E splice variant of the mu-opioid receptor-1 (mouse) (UniProt P42866). The assay is described as above.
In assay [8] the target is MOR-1D splice variant of the mu-opioid receptor-1 (mouse) (UniProt P42866). The description is as above.

On to “[D-Ser^2, Leu^5]enkephalin-Thr^6 [DSLET]”, for which the “Potency against binding to MOR-1D relative to MOR-1 (in words)” value on MOR-1D is “twice as potent”.
As for β-endorphin: endogenous opioid peptide, the “Affinity of MOR-1E compared with MOR-1” value in the assay with MOR-1E is “significantly higher affinity”.
What is called pKi is −log10 of the Ki, conventionally taken in molar units. As to DADLE (peptide), the pKi in [1] was 8.68; in assay [2] it was 8.49; in [3], 8.60; in assay [4], 8.89.
One may read the pKd as −log10 of the Kd, conventionally taken in molar units. For the substance “[D-Ala^2, MePhe^4, Gly(ol)^5]enkephalin (DAMGO) (peptide)”, the pKi in assay [1] is 8.74; in [2], 9.03; in [3], 8.92; in assay [4], 9.15. Further, the pKd in [5] is 8.76; in [6] it was 9.03; in [7] it was 8.92; in assay [8] it was 9.14.
For the substance “[D-Ser^2, Leu^5]enkephalin-Thr^6 (DSLET) (peptide)”, in assay [4], the fold potency against MOR-1 is 2 fold.
